# In US9631180B2, “Recombinant manganese oxidase” (OREGON HEALTH & SCIENCE UNIVERSITY, priority 2013, dated 2017):
# B1: Fet3p S. cerevisiae: ferroxidase Fet3p from Saccharomyces cerevisiae, described in Stoj et al 2006 (protein, UniProt P38993 22-636, looked up)
# Iron transport multicopper …: ETHTFNWTTGWDYRNVDGLKSRPVITCNGQFPWPDITVNKGDRVQIYLTNGMNNTNTSMHFHGLFQNGTASMDGVPFLTQCPIAPGSTMLYNFTVDYNVGTYWYHSHTDGQYEDGMKGLFIIKDDSFPYDYDEELSLSLSEWYHDLVTDLTKSFMSVYNPTGAEPIPQNLIVNNTMNLTWEVQPDTTYLLRIVNVGGFVSQYFWIEDHEMTVVEIDGITTEKNVTDMLYITVAQRYTVLVHTKNDTDKNFAIMQKFDDTMLDVIPSDLQLNATSYMVYNKTAALPTQNYVDSIDNFLDDFYLQPYEKEAIYGEPDHVITVDVVMDNLKNGVNYAFFNNITYTAPKVPTLMTVLSSGDQANNSEIYGSNTHTFILEKDEIVEIVLNNQDTGTHPFHLHGHAFQTIQRDRTYDDALGEVPHSFDPDNHPAFPEYPMRRDTLYVRPQSNFVIRFKADNPGVWFFHCHIEWHLLQGLGLVLVEDPFGIQDAHSQQLSENHLEVCQSCSVATEGNAAANTLDLTDLTGENVQHAFIPTGFTKKGIIAMTFSCFAGILGIITIAIYGMMDMEDATEKVIRDLHVDPEVLLNEVDENEERQVNEDRHSTEKHQFLTKAKRFF
# B2: recombinant Bacillus sp. PL-12 Mn oxidase complex (Mnx; MnxE3F3G), MnxG (SEQ ID NO: 7), MnxE (SEQ ID NO: 5) and MnxF (SEQ ID NO: 6) (Bacillus sp. PL-12) (protein)
# chain: MLRKFHVVGISTRIVVNTFGDHNPNGRIYVLKENESKLKDLVRKNPYKPIDLVQPLAIRANEGDIVEILFENQLSFSAGMHFQEADYSVLSSDGADAGYNPDTTVEPGGEILYRLNVNQEGICFFTDLGNVSSTEQGSSVQGLFGALLVQKRGSSWTDPVTGGPINSGVYADIHHPFLPSFREYAWFFNDEMEIRDLTGERPLNPMTNQEAESFHGVNLRYEPMTNRKRLMEAGVVCPDCDSEEVHHDSWVFGDPATPILRGYVGDPAVIRLIHGGVKETHVFHYHVHQWLGDSSNINAEILDAQSISPQTHYSIQPLYGLGSLHGAIGDSIIHCHLYPHFGIGMWGMNRVFDTLQDGSQCYPNGVRIKALMPLPDRPEPPKPTPEKPGFPNFIPGKVGYKAPRPPLGIVGGREMTELERNAAIENPRPGAVFVDPCLDQDPVVVEFNVSAIEMPVVYNKQGWHDPKARFYVMDEDLDDILSGKKEPEPLVFHVPAGTCIRMNYTNRMPHILDGDAFQLVTRTYENGFHIHFVKFDVLACDGGNVGWNYDSAVLPGQTIRYEWYAETELKAFFFHDHLFANSHQQHGVFGAGVIQPRFSKFLDSRTGDEVDHGTQISVEHPLIPDYRDQTLFVHDFALLFDKNGRPIQPPEYPGSEDDPGVFGVNFKCEPLKFRLGEDCDPAYSFSSYVHGDPVTPILRAYEGDPIRIRLLQGAHEESHSFNIHGLRWKEERPDLGSSMKAQQHIGISESFTFETEIPASGDYLWAFEDEEDVWLGTWGLIRAYKGRMEDLIVLTDREALPEGSAETPKPTGKPPEKANPLASLPPGAYQGSPVKKFEVVAFQTPIQYNSYGDHDPYGIIFALKEDVEDILTGKKNPVPLILRANVGDLVEVTLTSELKKELFPFQDGIHPYPPVKEQSFYPPSLRISLHTSLLNYDVKTSSGDTVGYNPDQTVGPGETITYRWFVDGQFGMCSMWDMADLRNHRSFGTFGAFVAESRFTTYLDPYSLEKAITGENVILRHPLLPATREFVLILHDGVRLEDKDGKVIIDPMDGVVPDTEELEEVDTYDYGSRGFNYRSERLINRYKEHPVMHELFSSEVFGDPATPLFEAYPGEPVVMRITTPAERRRAHTFHLHGHYWKFDSKDLDSRIQSFLGHMVTGHTDDLRLIGGAGGVFNFPGDYLYRSGNIRWDIELGMWGIFRVHKDSKENLPRLEEVEGGWDNEEKA
# notes: Cu-loaded; purified ~230 kDa complex of MnxG, MnxE and MnxF; MnxD not found by MS
# B3: Fet3p C. albicans: ferroxidase Fet3p from Candida albicans, described in Ziegler et al 2011 (protein, UniProt P78591 21-624, looked up)
# Iron transport multicopper …: AETHTWYFKTGWVDANPDGVYPRKMIGFNDSWPLPTLRVKKGDRVQLYLINGFDNLNTTLHFHGLFVRGANQMDGPEMVTQCPIPPGETYLYNFTVTDQVGTYWYHSHTGGQYGDGMRGVFIIEDDDFPYHYDEEVVLTLSDHYHKYSGDIGPAFLTRFNPTGAEPIPQNFLFNETRNATWKVEPGKTYFVRILNVGGFVSQYLWMEDHEFTIVEIDGVYVEKNTTDLIYITVAQRYGVLITTKNSTDKNYVFMNGVDTTMLDSVPADLQVNGTNYIVYNESSALPDAYDIDSYDDALDDFYLKPLSKQKLMDDADYTITVDVQMNVLNDGINYAFFNNISYKAPKVPTLLTVLSAGEAATNELIYGTNTNSFVLQGGDIVDIVLNNFDTGKHPFHLHGHVFQLIERHEAIGSKESAVTFNVSDHAEWPEYPMIRDTVYVKPHSYMVLRFKADNPVVWFFHCHVDWHLEQGLAVVLIEDPQAIQKNEKITENHKRICEKVGVPWEGNAAANSNDYLDLKGENVQVKRLPTGFTTKGIVALVFSCVAAFLGLFSFSFYGMNDIAHVEDKVARDLDIDLEAENEDEEEAVVLNQNSSSSDSNSKPH
# What was measured:
# [1] = literature values for Fet3p ferroxidases, cited from earlier work; for Km: read-out: Fe(II) KM
# [2] = substrate: COc1cccc(OC)c1O; experiment: purified protein, by the assay type; type: biochemical, Bacillus sp. PL-12; conditions: other: 2,6-DMP, pH 8, HEPES, 22° C., 468 nm, Michaelis-Menten, pH 8.0
# Method: (§1) FIG. 8B is a plot showing the initial oxidation velocity of DMP plotted against initial substrate concentration in a reaction catalyzed by the recombinant Mn oxidase complex. […]
# (§2) All plots in FIGS. 8A, 8B, and 8C were fitted with either Michaelis-Menten or allosteric sigmoidal functions as appropriate.
# (§3) Kinetic experiments were performed on the Molecular Devices SpectraMax® M2 microplate reader spectrophotometer at 22° C. with purified protein. […] Reactions were carried out with 10 μg Mnx (final 240 nM) 100 mM in phosphate-citrate buffer pH 3-8 and 20 mM CHES, HEPES, and MES at pH 7-10. […] These assays were performed in at least two independent trials in triplicate. Fe(II) (ferrous ammonium sulfate) oxidation was measured by quenching 200 μl reactions with 50 μl of the Fe(II) chelating colorimetric assay FerroZine® (15 mM) and a ferrous ammonium sulfate standard curve, noting the absorbance at 570 nm. Fe(II) oxidation reactions were performed with 10 μg recombinant Mn oxidase complex in 100 mM Na acetate-acetic acid buffer (pH 4-5.5). Mn(II) (MnCl2) oxidation in 20 mM HEPES (pH 7-8.5) was measured by quenching 5 μl of 200 μl reactions with 195 μl leucoberbelin blue (LBB) colorimetric reagent and reading the absorbance at 618 nm. Working LBB reagent was prepared by diluting concentrated stock (100 mg LBB in 25 ml 0.4% NaOH) 1:10 into 1% acetic acid. A KMnO4 standard curve was used to determine MnO2 oxide equivalent concentration. The metal substrate assays were performed in five independent trials then the high and low values were discarded from each concentration. The linear part of each curve was fit plotted and fit with a linear regression in GraphPad Prism®. These slopes were converted to the appropriate kinetic units, plotted, and fit with nonlinear regressions determined by comparing best fit values in the same software. KM and Vmax were determined and reported as KM and kcat=Vmax/[enzyme].
# [3] = substrate: CCn1c(=NN=c2sc3cc(S(=O)(=O)O)ccc3n2CC)sc2cc(S(=O)(=O)O)ccc21; experiment: purified protein, by the assay type; type: biochemical, Bacillus sp. PL-12; conditions: other: ABTS, 22° C., 420 nm
# Method: as §1, §2, §3
# [4] = pH 4.5, phosphate-citrate buffer, Michaelis-Menten, pH 4.5
# [5] = pH 8, HEPES, allosteric sigmoidal function, pH 8.0
molecule,measurement,setting,value
B1,Fe(II) kcat,[1],0.835 ± 0.023 s⁻¹
same,Km,[1],4.9 ± 0.8 µM
B2,Km,[2],576 ± 163 µM
same,Km,[3]; [4],456 ± 23.3 µM
same,kcat,[3]; [4],0.206 ± 0.0136 s⁻¹
same,Km,[3]; [5],3126 ± 391 µM
same,kcat,[3]; [5],0.0595 ± 0.00891 s⁻¹
B3,Fe(II) kcat,[1],1.06 ± 0.02 s⁻¹
same,Km,[1],7.9 ± 0.5 µM
